# Values of other authors as cited in patent publication US12129294B2, “Methods of treatment of diseases in which IL-13 activity is detrimental using anti-IL-13 antibodies” (AbbVie Inc., priority 2016, dated 2024).
# B1: QAX576: anti-IL-13 antibody dectrekumab (QAX-576), comparator study in Table 6 (antibody, chains of the INN, looked up, V domains shown)
# VH: EVQLVESGGGVVQPGRSLRLSCAASGFTFSSYGMHWVRQAPGKGLEWVAIIWYDGSNKYYADSVKGRFTISRDNSKNTLYLQMNSLRAEDTAVYYCARLWFGDLDAFDIWGQGTMVTVSS
# VL: EIVLTQSPATLSLSPGERAILSCRAGQSVSSYLVWYQQKPGQAPRLLIYDASNRATGIPARFSGSGSGTDFTLTISSLEPEDFAVYYCQQRSSWPPVYTFGQGTKLEIK
# Test system: eosinophilic esophagitis (EoE)
# Conditions: QAX576 study, N = 17, cited from earlier work
molecule,measurement,setting,value
B1,EEOC Mean BL,baseline,35.4
same,EEOC Peak BL,baseline,88.2
same,EEOC Mean post,post treatment,14.6
